Assay results from patent publication US7645449B2, “Sensitizing cells for apoptosis by selectively blocking cytokines” (priority 2003, dated 2010).

Legend:
[1] = test system: Bcl-XL and cFlip/FLAME-1 in LNCap prostate cancer cells; test: Immunoblot of Bcl-XL and cFlip/FLAME-1 in LNCaP cells; format: cell-based, human; details: following IL-4 treatment
Experimental: The observation that prostate and breast tumor cells treated with IL-4 display a reduced sensitivity to death induced by CD95 and chemotherapeutic drugs led us to investigate whether this cytokine would influence the expression of apoptosis regulatory genes. […] Therefore, IL-4-mediated increased survival in bladder, prostate and breast cancer cells is associated with upregulation of anti-apoptotic proteins.
Cell pellets were washed twice with cold PBS and lysed on ice for 30 minutes with 1% NP40 lysis buffer (20 mM Tris-HCl pH 7.2, 200 mM NaCl, 1% NP40) in the presence of 1 mM phenylmethylsulphonyl fluoride (PMSF) and 2 μg/ml each of aprotinin, leupeptin and pepstatin. Cell debris was removed by centrifugation at 13,000 rpm for 10 minutes at 4° C. Lysate concentration was determined using the Bio-Rad protein assay (Bio-Rad Laboratories, Richmond, Calif.). Aliquots of cell extracts containing 30 μg of total protein were resolved on 10% or 12% SDS-PAGE and transferred to a Hybond-C extra nitrocellulose membrane (Amersham Pharmacia Biotech, Piscataway, N.J.). […]

normal thyrocytes = test: Cytokine protection of normal thyrocytes from chemotherapy-induced apoptosis; format: cell-based, human; details: 48 h pre-treatment, rhIL-4 20 ng/ml or rhIL-10 40 ng/ml, then drugs for 12 h
Experimental: Thyroid cell purification and culture. Thyroid tissues from normal, PTC, FTC and UTC were digested for 2 hours with collagenase (1.5 mg/ml) (Gibco BRL, Grand Island, N.Y.) and hyaluronidase (20 μg/ml) (Sigma Chemical Co., St. Louis, Mo.) in DMEM. Thyrocytes were purified from the digested tissues by hematopoietic cell depletion with anti-CD45-coupled beads (Dynal, Wirral Merseyside, U.K.) and 12 hours of flask adherence, which allowed removal of other cells. After additional 12 hours of culture, thyroid cells were allowed to grow in monolayer for the immunocytochemistry or detached with trypsin+EDTA following exposure to cytokines or chemotherapeutic agents for functional and protein analyses. […]
Cell death quantitation. Apoptotic events of neoplastic thyrocytes were evaluated by DNA staining and flow cytometry analysis. […] The percentage of hypodiploid nuclei was evaluated as previously described. […] The number of viable cells was detected by CellTiter Aqueous Assay Kit (Promega Corporation, WI, USA) adding 20 μl of solution reagent directly to culture wells, incubating for 1 hours at 37° C. and recording absorbance at 490 nm. […]

B1: IL-4: human recombinant IL-4 (protein, UniProt P05112 25-153, looked up)
Interleukin-4: HKCDITLQEIIKTLNSLTEQKTLCTELTVTDIFAASKNTTEKETFCRAATVLRQFYSHHEKDTRCLGATAQQFHRHKQLIRFLKRLDRNLWGLAGLNSCPVKEANQSTLENFLERLKTIMREKYSKCSS
levels of Bcl-XL and cFlip/FLAME-1 in LNCap cells [1]: considerably upregulated | prevention of death of normal thyrocytes exposed to cisplatinum, doxorubicin and taxol (normal thyrocytes): drastically prevented death
